Here are results for two molecules from article PMC2711614 (The Journal of Cell Biology, 2009).

To fix the notation:
B1: GST-Inn1-tail (amino acids 131–409), wild type (domain or fragment, S. cerevisiae, UniProt P53901 131-409, looked up)
chain: LTFTPKVPRLNRDDLNKEMDRLDSSMAMRPIPPLPTESEYDYVHGSTMRQITPQCVSTSHEDKDEGQPYRNGNVFSMSSKSDTAVLANSNDPIILPPTFSASMGTTSTLETNDTAISNTSNTKFHFANLRKLKEKINIFKNPDSSTNNCQNESNKVDIEALQKAIGVTSLSYDEDDDDDDENDAFYSSSHRVSHNYNQPPLPPIPTRDDMSNYSSSRNTPLVRRDRPSRLDSSSPNSHPHPSGLNSPKLPPLPTTSNSNFNSRKNSMSPTRKRPPPRLS
B2: His6-tagged Cyk3 SH3 domain fragment (amino acids 1–70) (domain or fragment, S. cerevisiae, UniProt Q07533 1-70, looked up)
chain: MATNLTSLKPPFKVKARYGWSGQTKGDLGFLEGDIMEVTRIAGSWFYGKLLRNKKCSGYFPHNFVILLEE

The target in experiment [1] is T1, His6-Hof1-C (amino acids 341–669) (S. cerevisiae, UniProt Q05080 341-669).
T1 sequence (looked up): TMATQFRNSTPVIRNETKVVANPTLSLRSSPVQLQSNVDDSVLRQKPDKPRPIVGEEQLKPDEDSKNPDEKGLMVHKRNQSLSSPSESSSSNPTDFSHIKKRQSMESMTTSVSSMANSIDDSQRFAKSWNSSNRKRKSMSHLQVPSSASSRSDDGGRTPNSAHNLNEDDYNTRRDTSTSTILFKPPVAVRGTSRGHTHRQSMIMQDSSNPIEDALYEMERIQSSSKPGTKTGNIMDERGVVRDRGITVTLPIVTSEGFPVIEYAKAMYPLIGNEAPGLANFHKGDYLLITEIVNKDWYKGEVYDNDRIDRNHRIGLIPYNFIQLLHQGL
The experiment is described as follows: pull-down.

For experiment [2], the target named is B1. The experiment is described as follows: pull-down.

On to B1, for which, in experiment [1], the binding result is “binds”.

Regarding B2, in experiment [2], the binding result was “binds”.
